From publication PMC6370856, “Peptidyl prolyl cis/trans isomerase activity on the cell surface correlates with extracellular matrix development” (Communications Biology, 2019)

What was measured:
[1] = PPIase activity of His-CypB immobilized on Ni-NTA silica; type: biochemical; conditions: 25 pmol immobilized on Ni-NTA silica showed a similar activity to 1 pmol free control
Protocol: Ten microliters of His-CypB (2.5 µM, 2 µM, 1.5 µM, and 1 µM) was incubated with 10 µL of settled Ni-NTA macroporous silica (Ni-NTA Spin Kit; Qiagen) for 30 min at 0 °C. Subsequently, 80 µL of HEPES buffer was added and incubated for another 10 min with gentle shaking. The silica was precipitated by gravity for 10 min. Eighty microliters were taken from the supernatant and measured along with the silica fraction (the remaining 20 µL) for PPIase activity. The amounts of CypB in the wells were 25, 20, 15, and 10 pmol. Additionally, the activity of 10 µL of 100 nM His-CypB in solution was measured. Three independent experiments were performed. The result is shown in Supplementary Fig. 9.

[2] = tested on: mixture of Jurkat T lymphocyte and the plasma protein fibrinogen; test: Viscosity/shear rate measurement of Jurkat cells in fibrinogen solution; type: cell-based
Excerpt: Since PPIases can catalyze the dynamic rearrangement of the dense ECM polymer network, we speculated that PPIases could also affect the dynamic interaction between cells and the ECM. Probing the influence of transient prolyl isomerization on cell–ECM interaction is difficult. Studying cell adhesion by the treatment of PPIase inhibitors cannot distinguish extracellular and intracellular factors as well as receptor-mediated signaling due to the long assay time. In order to reflect the highly dynamic process, we measured the viscosity of plasma protein solution with cells. Blood is a shear-thinning non-Newtonian fluid, and its viscosity is largely affected by the interaction between cells and plasma proteins, for example, the coagulation process. We investigated whether the catalyzed isomerization could also influence the interaction between blood cells and plasma proteins, thus affecting the viscosity. We performed viscosity/shear rate measurements using a mixture of Jurkat T lymphocyte and the plasma protein fibrinogen.
The machine used for viscosity is the same as for stiffness measurements. To 30 µL of 4 mg mL^−1 fibrinogen, an equal volume of Jurkat cells (8 × 10^7 mL^−1 in PBS, washed two times with PBS before used; Jurkat cells ocupated around 20% of the volume) was added. The mixture was pipetted up and down six times, kept on ice for 10 min, and then transferred to the rheometer plater (25 °C) for measurements. The plate temperature was raised to 37 °C. The measurement was performed by increasing shear rate ramp liner from 100 to 1000 s^−1. Hundred data points were collected during the measurements. For each condition, two independent experiments were performed (Fig. 1c and Supplementary Fig. 3).

Jurkat cells [3] = test: Stability of DNA-conjugated compounds under Jurkat cell treatment (LC/MS); type: in vitro ADME; conditions: CsA-DNA 500 nM, SLF-DNA 1000 nM, two independent experiments
Protocol: A designed concentration of DNA-conjugated compounds (30 µL in PBS) was incubated with 30 µL of PBS or the cell on ice for 10 min, then 20 min at 37 °C, which is much longer then the viscosity assay time. All the samples were centrifuged at 1000 rpm for 3 min, and then, 30 µL of the supernatant was transferred to MS tube for LC/MS analysis (Supplementary Fig. 4).

Jurkat cells [4] = test: Cellular uptake of TAMRA compounds by Jurkat cells (flow cytometry); type: cell-based; conditions: 100 nM TAMRA compounds, 1 and 24 hours, compared with Cs9-TAMRA
Protocol: A final concentration of 100 nM DNA-conjugated TAMRA compounds and Cs9TAMRA was incubated with Jurkat cells for 1 h or 24 h, the cells were pelleted by centrifugation at 1000 rpm for 5 min, the pellet was washed one time with fluorescent-activated cell sorting (FACS) buffer (PBS with 1% bovine serum albumin), and resuspended in FACS buffer. BD FACS Canto™ II Flow Cytometer was used to analyze the uptake of these compounds by Jurkat cells (Supplementary Fig. 5).

For “His-CypB: recombinant His-tagged cyclophilin B, immobilized on Ni-NTA macroporous silica”, the “catalytic activity of immobilized enzyme versus free enzyme in solution” value [1] was “diminished catalytic activity”.

With “CsA-DNA: CsA-conjugated oligonucleotide, 5-amino modifier C6-CTCTTCCGATCTC (chemistry not fully specified)” the “effect on viscosity of cell/fibrinogen mixture” value ([2]; Jurkat T lymphocyte and fibrinogen, shear rate 100-1000 s^-1) was “reduced viscosity”, the “Viscosity Mean” value ([2]; shear rate 102 s-1) was 3.276 mPa·s and the “Viscosity Mean” value ([2]; shear rate 112 s-1) was 2.725 mPa·s. For the same substance, the “Viscosity Mean” value ([2]; shear rate 122 s-1) was 2.3889 mPa·s, the “Viscosity Mean” value ([2]; shear rate 132 s-1) was 2.173 mPa·s and the “Viscosity Mean” value ([2]; shear rate 142 s-1) was 1.975 mPa·s. For the same substance, the “Viscosity Mean” value ([2]; shear rate 152 s-1) was 1.931 mPa·s, the “Viscosity Mean” value ([2]; shear rate 162 s-1) was 1.858 mPa·s and the “Viscosity Mean” value ([2]; shear rate 173 s-1) was 1.71 mPa·s. For the same substance, the “Viscosity Mean” value ([2]; shear rate 183 s-1) was 1.682 mPa·s, the “Viscosity Mean” value ([2]; shear rate 193 s-1) was 1.63 mPa·s and the “Viscosity Mean” value ([2]; shear rate 203 s-1) was 1.558 mPa·s. For the same substance, the “Viscosity Mean” value ([2]; shear rate 253 s-1) was 1.438 mPa·s, the “Viscosity Mean” value ([2]; shear rate 263 s-1) was 1.4013 mPa·s and the “Viscosity Mean” value ([2]; shear rate 284 s-1) was 1.361 mPa·s. The “Viscosity Mean” value ([2]; shear rate 304 s-1) was 1.331 mPa·s, the “Viscosity Mean” value ([2]; shear rate 334 s-1) was 1.301 mPa·s and the “Viscosity Mean” value ([2]; shear rate 344 s-1) was 1.29 mPa·s. For the same substance, the “Viscosity Mean” value ([2]; shear rate 354 s-1) was 1.29 mPa·s, the “Viscosity Mean” value ([2]; shear rate 364 s-1) was 1.269 mPa·s and the “Viscosity Mean” value ([2]; shear rate 374 s-1) was 1.245 mPa·s. The “Viscosity Mean” value ([2]; shear rate 384 s-1) was 1.237 mPa·s, the “Viscosity Mean” value ([2]; shear rate 395 s-1) was 1.237 mPa·s and the “Viscosity Mean” value ([2]; shear rate 415 s-1) was 1.212 mPa·s. For the same substance, the “Viscosity Mean” value ([2]; shear rate 425 s-1) was 1.198 mPa·s, the “Viscosity Mean” value ([2]; shear rate 475 s-1) was 1.142 mPa·s and the “Viscosity Mean” value ([2]; shear rate 526 s-1) was 1.138 mPa·s. For the same substance, the “Viscosity Mean” value ([2]; shear rate 556 s-1) was 1.137 mPa·s, the “Viscosity Mean” value ([2]; shear rate 576 s-1) was 1.139 mPa·s and the “Viscosity Mean” value ([2]; shear rate 909 s-1) was 0.9613 mPa·s. The “Viscosity Mean” value ([2]; shear rate 919 s-1) was 1.096 mPa·s, the “Viscosity Mean” value ([2]; shear rate 929 s-1) was 0.9906 mPa·s and the “Viscosity Mean” value ([2]; shear rate 939 s-1) was 0.9737 mPa·s. For the same substance, the “Viscosity Mean” value ([2]; shear rate 980 s-1) was 0.896 mPa·s, the “Viscosity Mean” value ([2]; shear rate 990 s-1) was 0.87 mPa·s and the “Viscosity Mean” value ([2]; shear rate 1000 s-1) was 0.9112 mPa·s. The “area of UV absorbance at 260 nm in supernatant” value (Jurkat cells [3]; Jurkat cell 4 X 107/mL treatment) was 3054±270, the “area of UV absorbance at 260 nm in supernatant” value (Jurkat cells [3]; PBS control) was 2218±11 and the “cell entry / uptake by Jurkat cells” value (Jurkat cells [4]) was “do not enter into cells”.
